In patent publication US8105605B2, “Allergen formulation” (Allergy Therapeutics (UK) Ltd., priority 1997, dated 2012):

How the values were obtained:
[1] = tested on: allergen specific antibodies to ovalbumin (XOA): IgG1, IgG2a, IgG2b; assay: ELISA of serum IgG1, IgG2a and IgG2b antibodies after subcutaneous immunisation and booster of mice; assay type: in vivo, BALB/c female mice; settings: BALB/c mice, 0.2 mL s.c., boosted at day 21, bled 14 days after booster
Procedure: (§1) TH1 inducing activity in mice can be equated with the production of IgG2a and IgG2b antibodies and the TH2 inducing activity with the production of IgG 1 antibodies and IgE antibodies.
(§2) Groups of 8 BALB/c female mice, 6-8 weeks of age, were injected subcutaneously in the inguinal area with 0.2 mL of one of the following vaccines:
(§3) XOA+Tyrosine: The XOA tyrosine adsorbate prepared in Preparation 2 above was diluted with an equal volume of phosphate buffered saline within 30 min prior to injection.
XOA+Tyrosine+MPL: The XOA tyrosine adsorbate prepared in Preparation 2 above was diluted with an equal volume of MPL®-AF at 500 μg/mL in phosphate buffered saline within 30 min prior to injection.
XOA+MPL: XOA was dissolved in phosphate buffered saline at 200 μg/mL and diluted with an equal volume of MPL®-AF at 500 μg/mL in phosphate buffered saline within 30 min prior to injection.
XOA Alone: XOA was dissolved at 200 μg/mL in phosphate buffered saline and diluted with an equal volume of phosphate buffered saline.
Twenty-one days later the four groups of mice were boosted with 0.2 mL of freshly prepared vaccines. Fourteen days following the booster the mice were bled and the sera separated and stored at −70° C. until assay.
(§4) The sera were assayed by conventional ELISA technique using horseradish conjugated goat anti-mouse IgG1, IgG2a, and IgG2b antibodies purchased from Southern Biotechnology, Inc. (Birmingham, Ala.) and used according to the manufacturer's instruction. The IgG1, IgG2a, and IgG2b titers represent the reciprocal serum dilution giving a reading of >0.1 OD units at A490. The serum IgE levels were measured using an anti-IgE capture ELISA followed by the use of a biotinylated ovalbumin probe. Binding was measured following the addition of a horseradish conjugated strepavidin preparation.

[2] = tested on: allergen specific IgE antibody (ovalbumin); assay: anti-IgE capture ELISA with biotinylated ovalbumin probe on serum of immunised mice; assay type: in vivo, BALB/c female mice; settings: BALB/c mice, 0.2 mL s.c., boosted at day 21, bled 14 days after booster; serum at 1/10 dilution
Procedure: as §1, §2, §3
XOA+Tyrosine+MPL: The XOA tyrosine adsorbate prepared in Preparation 2 above was diluted with an equal volume of MPL®-AF at 500 μg/mL in phosphate buffered saline within 30 min prior to injection. […]
as §4

B1: ovalbumin (protein, UniProt P01012 2-386, looked up)
Ovalbumin: GSIGAASMEFCFDVFKELKVHHANENIFYCPIAIMSALAMVYLGAKDSTRTQINKVVRFDKLPGFGDSIEAQCGTSVNVHSSLRDILNQITKPNDVYSFSLASRLYAEERYPILPEYLQCVKELYRGGLEPINFQTAADQARELINSWVESQTNGIIRNVLQPSSVDSQTAMVLVNAIVFKGLWEKAFKDEDTQAMPFRVTEQESKPVQMMYQIGLFRVASMASEKMKILELPFASGTMSMLVLLPDEVSGLEQLESIINFEKLTEWTSSNVMEERKIKVYLPRMKMEEKYNLTSVLMAMGITDVFSSSANLSGISSAESLKISQAVHAAHAEINEAGREVVGSAEAGVDAASVSEEFRADHPFLFCIKHIATNAVLFFGRCVSP
notes: ovalbumin (XOA), a food allergen from chicken eggs, 200 μg/mL in phosphate buffered saline diluted with an equal volume of PBS
IgG1 titer (reciprocal serum dilution giving a reading of >0.1 OD units at A490) [1]: 6400 | IgG2a Titer (reciprocal serum dilution giving a reading of >0.1 OD units at A490) [1]: <100 | IgG2b Titer (reciprocal serum dilution giving a reading of >0.1 OD units at A490) [1]: <100 | IgE OD at 1/10 Dilution [2]: 0.235 OD units at A490
